No end group written: not given here.
Columns and labels:
streptavidin [1] = target: T1, streptavidin (UniProt P22629 37-163, limits assumed); assay: selection from the X4CX3CX4 library displayed in loop 2 of OmpX
T1 construct: Used as phycoerythrin conjugate or on coated beads; also called SA; streptavidin-phycoerythrin

human C-reactive protein [2] = target: T2, human C-reactive protein (human, UniProt P02741 19-224); assay: selection from the E. coli display library
T2 construct: Biotinylated or labelled with Alexa Fluor 488; also called CRP; C-RP
T2 sequence (looked up): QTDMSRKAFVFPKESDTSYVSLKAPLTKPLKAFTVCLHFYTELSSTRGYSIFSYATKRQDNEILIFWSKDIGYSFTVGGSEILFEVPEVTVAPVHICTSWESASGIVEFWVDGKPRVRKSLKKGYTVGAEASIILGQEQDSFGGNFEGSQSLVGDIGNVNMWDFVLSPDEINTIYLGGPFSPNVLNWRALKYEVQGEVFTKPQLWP
Method: (§1) The library was first depleted of streptavidin binding peptides by incubation with streptavidin coated microbeads, e.g., from Qiagen, Inc. (Valencia, Calif.). Then the library was incubated with biotinylated human C-reactive protein at 10 nM final concentration, and two rounds of magnetic selection were used to enrich CRP binding peptides. […] Equilibrium binding affinities were measured in the whole cell format, by determining cell fluorescence at various concentrations of target CRP. See e.g. FIG. 17.

human C-reactive protein [3] = target: T2, human C-reactive protein; assay: clones isolated by MACS and FACS from the E. coli OmpA loop 1 15-mer library
streptavidin [4] = target: T1, streptavidin; assay: selection from the XCCX4CX7CX library displayed in loop 2 of OmpX
streptavidin [5] = target: T1, streptavidin; assay: whole-cell dissociation by flow cytometry, 1-2 uM biotin as competitor
Method: The apparent binding affinities of a subset of the selected peptides were determined using flow cytometric analysis. […] See Daugherty, P. S., et al. (1998) Protein Eng. 11(9):825-832, which is herein incorporated by reference. […] See Daugherty, P. S., et al. (1998) Protein Eng. 11(9):825-832; and Feldhaus, M. J., et al. (2003) Nat. Biotechnol. 21(2): 163-170, which are herein incorporated by reference. […] Apparent dissociation rate constants (kdiss) were determined for streptavidin, using about 1 to about 2 μM biotin as a competitor to prevent re-binding.
(§2) To obtain equilibrium binding curves, cells were labeled over a range of concentrations, e.g., about 0.1 to about 200 nM, of fluorescently conjugated target proteins (streptavidin-phycoerythrin or CRP-Alexa Fluor® 488) and analyzed by flow cytometry, as above. The corresponding mean fluorescence versus concentration data were fit to a monovalent binding isotherm to obtain the apparent KD. Dissociation rates of streptavidin-binding clones were measured in the presence of about 1 to about 2 μM biotin. Cells were labeled with 50 nM streptavidin-phycoerythrin for 30 minutes at room temperature. The cells were then pelleted, resuspended in PBS with biotin, and immediately analyzed by flow cytometry. Fluorescence data were collected continuously for about five minutes. The dissociation rate constants were then determined as described previously. See Daugherty, P. S., et al. (1998) Protein Eng. 11(9):825-832, which is herein incorporated by reference.

human serum albumin = target: T3, human serum albumin (human, UniProt P02768 25-609); assay: clones isolated by MACS and FACS from the E. coli OmpA loop 1 15-mer library
T3 construct: Biotinylated or FITC-conjugated; also called HSA

human C-reactive protein [6] = target: T2, human C-reactive protein; assay: apparent whole-cell KD, flow cytometry with CRP-Alexa Fluor 488
Method: as §2

human C-reactive protein [7] = target: T2, human C-reactive protein; assay: equilibrium dissociation constant of a selected displayed peptide, whole-cell flow cytometry at various CRP concentrations
Method: as §1
as §2, with “11(9):825-832, which is herein incorporated by reference.” left out

streptavidin [8] = target: T1, streptavidin; assay: apparent whole-cell KD, flow cytometry with streptavidin-phycoerythrin
Method: as §2

B1: SEQ ID NO 278 (peptide)
peptide: KALVCQNVCYTMS
B1: binds (streptavidin [1]).

B2: SEQ ID NO 249 (peptide)
peptide: TFMPSYYRSWGPPPT
B2: binds (human C-reactive protein [2]).

B3: CRP-3 (peptide)
peptide: HMRWNTRGFLYPAMS
notes: Insert only
B3: binds (human C-reactive protein [3]).

B4: SEQ ID NO 276 (peptide)
peptide: QSLVCQNVCWMRE
B4: binds (streptavidin [1]).

B5: SEQ ID NO 273 (peptide)
peptide: LCCHPQVCASAGYYACY
B5: binds (streptavidin [4]).

B6: SEQ ID NO 248 (peptide)
peptide: TDFLSYYRVYRTPLQ
B6: binds (human C-reactive protein [2]).

B7: SA-8 (peptide)
peptide: IMMECFYVCTIANTQ
notes: Insert only
B7 showed a koff (streptavidin [5]) of ~0.01 s⁻¹.

B8: CRP-4 (peptide)
peptide: RYIMNHRGFYIFVPR
notes: Insert only
B8: binds (human C-reactive protein [3]).

B9: SA-6 (peptide)
peptide: LPVWCVMHVCLTSSR
notes: Insert only
B9 was tested, and the koff (streptavidin [5]) was ~0.001 s⁻¹.

B10: SEQ ID NO 246 (peptide)
peptide: TTCKYYLSCRWRKDL
B10: binds (human C-reactive protein [2]).

B11: HSA-1 (peptide)
peptide: NPFCSWYRWRNWCTK
notes: Insert only
B11: binds (human serum albumin).

B12: CRP-12 (peptide)
peptide: TFMPSYYRSWGPPPT
notes: Insert only
B12: binds (human C-reactive protein [3]).

B13: SEQ ID NO 251 (peptide)
peptide: LMNWRGFMVPRESPK
B13: binds (human C-reactive protein [2]).

B14: CRP-2 (peptide)
peptide: FPIYNQRGFITLASP
notes: Insert only
With B14 the Kd (human C-reactive protein [6]) was 3 nM.

B15: CRP-1 (peptide)
peptide: EWACNDRGFNCQLQR
modifications: not fully specified (bridges); cysteine pairing not given here
notes: Insert only; said to be a cyclic peptide (two cysteines)
Binder B15 has a Kd (human C-reactive protein [7]) of 1.2 nM and a Kd (human C-reactive protein [6]) of 1 nM.

B16: SA-2 (peptide)
peptide: ICSYVMYTTCFLRVY
notes: Insert only
With B16 the koff (streptavidin [5]) was ~0.001 s⁻¹ and the Kd (streptavidin [8]) was 8 nM.

B17: SEQ ID NO 279 (peptide)
peptide: SKWICQNVCYPGL
B17: binds (streptavidin [1]).

B18: SEQ ID NO 270 (peptide)
peptide: ICCHPQVCSGLNRFRCG
B18: binds (streptavidin [4]).

B19: CRP-7 (peptide)
peptide: LMNWRGFMVPRESPK
notes: Insert only
B19: binds (human C-reactive protein [3]).

B20: SEQ ID NO 269 (peptide)
peptide: ICCHPQVCAWNRVFLCK
B20: binds (streptavidin [4]).

B21: SEQ ID NO 281 (peptide)
peptide: PTLICMNVCFYDQ
B21: binds (streptavidin [1]).

B22: SEQ ID NO 272 (peptide)
peptide: ACCHPQVCVMALPYHCL
B22: binds (streptavidin [4]).

B23: HSA-4 (peptide)
peptide: NNYSAWLRCLLRAYS
notes: Insert only
B23: binds (human serum albumin).

B24: CRP-5 (peptide)
peptide: VRTWNDRGFQQSVDR
notes: Insert only
B24: binds (human C-reactive protein [3]).

B25: SEQ ID NO 268 (peptide)
peptide: WCCHPQVCSLSLAYKCQ
B25: binds (streptavidin [4]).

B26: SEQ ID NO 271 (peptide)
peptide: WCCHPQVCHRAMVRNCI
B26: binds (streptavidin [4]).

B27: HSA-3 (peptide)
peptide: SYISTWLNFLFCGQS
notes: Insert only
B27: binds (human serum albumin).

B28: SA-4 (peptide)
peptide: VTSLCMNVCYSLTTY
notes: Insert only
In the case of B28, the koff (streptavidin [5]) is reported as ~0.001 s⁻¹.

B29: SEQ ID NO 283 (peptide)
peptide: TYSWCANVCMHYS
B29: binds (streptavidin [1]).

B30: HSA-2 (peptide)
peptide: RHLYCWTWRWCHFKD
notes: Insert only
B30: binds (human serum albumin).

B31: SA-1 (peptide)
peptide: RLEICQNVCYYLGTL
notes: Insert only; also called SA-1 pep
Work on B31 yielded a koff (streptavidin [5]) of ~0.001 s⁻¹ and a Kd (streptavidin [8]) of 10 nM.

B32: SA-5 (peptide)
peptide: YWVCMNVCMYYTARQ
notes: Insert only
B32 gave a koff (streptavidin [5]) of ~0.001 s⁻¹.

B33: CRP-13 (peptide)
peptide: TTCKYYLSCRWRKDL
notes: Insert only
B33: binds (human C-reactive protein [3]).

B34: SA-11 (peptide)
peptide: ADTICWYVCTISVHA
notes: Insert only
Work on B34 yielded a koff (streptavidin [5]) of ~0.01 s⁻¹.

B35: SEQ ID NO 252 (peptide)
peptide: PYLNARGFSVTREQI
B35: binds (human C-reactive protein [2]).

B36: SEQ ID NO 254 (peptide)
peptide: WTKLKNSRGFELQLD
B36: binds (human C-reactive protein [2]).

B37: CRP-11 (peptide)
peptide: TDFLSYYRVYRTPLQ
notes: Insert only
B37: binds (human C-reactive protein [3]).

B38: CRP-10 (peptide)
peptide: YPPRFQYYRFYYRGP
notes: Insert only
B38 was tested, and the Kd (human C-reactive protein [6]) was 5 nM.

B39: SEQ ID NO 280 (peptide)
peptide: GTLVCMNFCYLSK
B39: binds (streptavidin [1]).

B40: CRP-8 (peptide)
peptide: WTKLKNSRGFELQLD
notes: Insert only
B40: binds (human C-reactive protein [3]).

B41: SEQ ID NO 275 (peptide)
peptide: ICCHPQWCGLTVWWPCK
B41: binds (streptavidin [4]).

B42: SEQ ID NO 284 (peptide)
peptide: TRLICANLCWYAE
B42: binds (streptavidin [1]).

B43: SEQ ID NO 274 (peptide)
peptide: LCCHPQNCVSFRHVECR
B43: binds (streptavidin [4]).

B44: CRP-9 (peptide)
peptide: PYLNARGFSVTREQI
notes: Insert only
B44: binds (human C-reactive protein [3]).

B45: CRP-6 (peptide)
peptide: MIFNSRGFLSLMSSG
notes: Insert only
B45 was tested, and the Kd (human C-reactive protein [6]) was 8 nM.

B46: SEQ ID NO 282 (peptide)
peptide: SHWFCVNVCFRIQ
B46: binds (streptavidin [1]).

B47: SEQ ID NO 250 (peptide)
peptide: RYIMNHRGFYIFVPR
B47: binds (human C-reactive protein [2]).

B48: SA-10 (peptide)
peptide: SITICWYTCMVQKTA
notes: Insert only
With B48 the koff (streptavidin [5]) was ~0.01 s⁻¹.

B49: SEQ ID NO 277 (peptide)
peptide: CMIICQNVCYRKC
B49: binds (streptavidin [1]).

B50: SEQ ID NO 267 (peptide)
peptide: YCCHPQVCFLGHRAACP
B50: binds (streptavidin [4]).

Source: patent publication US20190264194A1 (published 2019)
